B1: TPR t1 (parent)
chain: GACCAAUCUGCCCUCAGAGCUCGAGAACAUCUUCGGAUGCAGAGGAGGCAGGCUUCGGUGGCGCGAUAGCGCCAACGUCCUCAACCUCCAAUGCAUCCCACCACAUGAUGAUGCCUGAAGAGCCUUGGUUUUUUG

Variants of: B1
Experiment: polymerase ribozyme fitness, log enrichment relative to wild type (log ratio); higher = more active; in vitro selection for triplet polymerase activity
Summary of the method: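 Input and output libraries were sequenced on Illumina after a single in vitro selection round, run in triplicate on PCR-built, transcribed mutant libraries of each subunit of a heterodimeric triplet polymerase ribozyme. Selection annealed libraries to a biotinylated primer, the partner subunit and triplets, incubated them frozen at −7 °C, then gel-excised extended constructs for streptavidin-bead capture and RT-PCR. Genotypes with ≥10 input reads and ≥1 read per output were kept. Fitness is the logarithm, taken in base 2, of genotype enrichment divided by wild-type enrichment, using inverse-variance-weighted replicate averages.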

**Q.** Which “polymerase ribozyme fitness (log ratio)” value does the source give for C13U A29U U55A G60A C101G here?
**A.** Its value is -4.15.

**Q.** With C13U U30C A46U as the variant, how does the “polymerase ribozyme fitness (log ratio)” value read?
**A.** Its value is -5.06.

**Q.** For C13G G57C C72U G113A, which “polymerase ribozyme fitness (log ratio)” value is on record?
**A.** The value was -2.96.

**Q.** With C13G G63U C72U as the variant, how does the “polymerase ribozyme fitness (log ratio)” value read?
**A.** The value was -2.72.

**Q.** With C13U C49A G71A as the variant, how does the “polymerase ribozyme fitness (log ratio)” value read?
**A.** Its value is -0.504.

**Q.** With C13U G113U U125C as the variant, how does the “polymerase ribozyme fitness (log ratio)” value read?
**A.** Its value is -1.89.

**Q.** Which “polymerase ribozyme fitness (log ratio)” value does the source give for C13U G47A C82G here?
**A.** Its value is -2.07.

**Q.** With C13U A18C G77A as the variant, how does the “polymerase ribozyme fitness (log ratio)” value read?
**A.** Its value is -1.41.

**Q.** For C13U G48U G110C, which “polymerase ribozyme fitness (log ratio)” value is on record?
**A.** The value was -4.34.

**Q.** With C13U C56U U106G C114G as the variant, how does the “polymerase ribozyme fitness (log ratio)” value read?
**A.** The value was -4.09.

**Q.** With C13U G113C as the variant, how does the “polymerase ribozyme fitness (log ratio)” value read?
**A.** The value was -1.31.

**Q.** With C13U U21C A27U A37U A50G C56A G69U A111C as the variant, how does the “polymerase ribozyme fitness (log ratio)” value read?
**A.** Its value is -4.81.

**Q.** For C13U G39A A91G C123A, which “polymerase ribozyme fitness (log ratio)” value is on record?
**A.** Its value is 0.557.

**Q.** With C13U G60C G61A G117A as the variant, how does the “polymerase ribozyme fitness (log ratio)” value read?
**A.** Its value is -2.25.

**Q.** With C13U C89G A90G G110C as the variant, how does the “polymerase ribozyme fitness (log ratio)” value read?
**A.** The value was -6.32.

**Q.** Which “polymerase ribozyme fitness (log ratio)” value does the source give for C13U G61U U129A G135U here?
**A.** Its value is -0.936.

**Q.** With C13U C79G A83G C89G as the variant, how does the “polymerase ribozyme fitness (log ratio)” value read?
**A.** The value was -4.49.

**Q.** For C13U C31U A46G C72U, which “polymerase ribozyme fitness (log ratio)” value is on record?
**A.** The value was -4.32.

**Q.** For C13U C56U U92G G93C C115A G120A, which “polymerase ribozyme fitness (log ratio)” value is on record?
**A.** The value was -0.609.

**Q.** Which “polymerase ribozyme fitness (log ratio)” value does the source give for C13U G71U here?
**A.** Its value is -0.508.

**Q.** With C13G G127U as the variant, how does the “polymerase ribozyme fitness (log ratio)” value read?
**A.** Its value is -2.53.

**Q.** For C13G G127C, which “polymerase ribozyme fitness (log ratio)” value is on record?
**A.** Its value is -1.12.

**Q.** Which “polymerase ribozyme fitness (log ratio)” value does the source give for C13U A41G C49G U87A here?
**A.** The value was -0.587.

**Q.** Which “polymerase ribozyme fitness (log ratio)” value does the source give for C13U G60C G93A G110A U130A here?
**A.** Its value is -3.35.

**Q.** With C13U C85A A91C C104A G120C as the variant, how does the “polymerase ribozyme fitness (log ratio)” value read?
**A.** Its value is -3.62.

**Q.** With C13U G36U U92A as the variant, how does the “polymerase ribozyme fitness (log ratio)” value read?
**A.** The value was -4.57.

**Q.** Which “polymerase ribozyme fitness (log ratio)” value does the source give for C13U G42U A90U A95U here?
**A.** The value was -1.89.

**Q.** Which “polymerase ribozyme fitness (log ratio)” value does the source give for C13U A26U C40A U112A here?
**A.** Its value is -4.39.

**Q.** For C13U U78C U92G U106A, which “polymerase ribozyme fitness (log ratio)” value is on record?
**A.** Its value is -2.62.

**Q.** Which “polymerase ribozyme fitness (log ratio)” value does the source give for C13U C115U G117C here?
**A.** The value was -6.41.

**Q.** Which “polymerase ribozyme fitness (log ratio)” value does the source give for C13U G71C A95C here?
**A.** The value was -1.52.

**Q.** With C13U C20A U21G A24C G71C U112C C123A as the variant, how does the “polymerase ribozyme fitness (log ratio)” value read?
**A.** Its value is -6.62.

**Q.** For C13U C124A, which “polymerase ribozyme fitness (log ratio)” value is on record?
**A.** Its value is 1.91.

**Q.** For C13U A16C C101G, which “polymerase ribozyme fitness (log ratio)” value is on record?
**A.** The value was -2.83.

**Q.** With C13U G47C as the variant, how does the “polymerase ribozyme fitness (log ratio)” value read?
**A.** The value was -1.18.

**Q.** Which “polymerase ribozyme fitness (log ratio)” value does the source give for C13U G47A U78C G120A C123U U125A G128A here?
**A.** Its value is -0.365.

**Q.** Which “polymerase ribozyme fitness (log ratio)” value does the source give for C13G U78C A121C here?
**A.** Its value is 0.61.

**Q.** Which “polymerase ribozyme fitness (log ratio)” value does the source give for C13U A66G C76U C88U G128C here?
**A.** Its value is -3.51.

**Q.** For C13U A27C A83U A84C C86A, which “polymerase ribozyme fitness (log ratio)” value is on record?
**A.** Its value is -3.39.

**Q.** For C13U G48A G122U, which “polymerase ribozyme fitness (log ratio)” value is on record?
**A.** The value was 0.102.

**Q.** For U14A A18U G60C, which “polymerase ribozyme fitness (log ratio)” value is on record?
**A.** The value was -4.66.

**Q.** With C13U G120U as the variant, how does the “polymerase ribozyme fitness (log ratio)” value read?
**A.** Its value is 0.513.

**Q.** Which “polymerase ribozyme fitness (log ratio)” value does the source give for C13U U109A here?
**A.** Its value is -5.03.

**Q.** For C13U U109G, which “polymerase ribozyme fitness (log ratio)” value is on record?
**A.** Its value is -4.64.

**Q.** Which “polymerase ribozyme fitness (log ratio)” value does the source give for C13U U109C here?
**A.** The value was -2.24.

**Q.** With C13G G69U as the variant, how does the “polymerase ribozyme fitness (log ratio)” value read?
**A.** Its value is -0.536.

**Q.** With C13U C28G C49U G69U as the variant, how does the “polymerase ribozyme fitness (log ratio)” value read?
**A.** Its value is -1.49.

**Q.** For C13U G36A, which “polymerase ribozyme fitness (log ratio)” value is on record?
**A.** The value was -0.918.

**Q.** With C13U G23A A26G G61A C79U U106C as the variant, how does the “polymerase ribozyme fitness (log ratio)” value read?
**A.** Its value is -4.2.

**Q.** For C13U C115U, which “polymerase ribozyme fitness (log ratio)” value is on record?
**A.** Its value is -0.41.

**Q.** For C13U C31A, which “polymerase ribozyme fitness (log ratio)” value is on record?
**A.** The value was -5.19.

**Q.** For C13U C20U G120C C123G G127A, which “polymerase ribozyme fitness (log ratio)” value is on record?
**A.** Its value is -2.54.

**Q.** For C13U A26C C56U, which “polymerase ribozyme fitness (log ratio)” value is on record?
**A.** The value was -5.2.

**Q.** Which “polymerase ribozyme fitness (log ratio)” value does the source give for C13U C53U U92C C123G U131A here?
**A.** Its value is -0.0541.

**Q.** For C13U A16C A91G C104U, which “polymerase ribozyme fitness (log ratio)” value is on record?
**A.** Its value is -1.72.

**Q.** Which “polymerase ribozyme fitness (log ratio)” value does the source give for C13G G63A G71A U112C here?
**A.** The value was -5.

**Q.** For C13U C123G, which “polymerase ribozyme fitness (log ratio)” value is on record?
**A.** The value was 2.04.

**Q.** Which “polymerase ribozyme fitness (log ratio)” value does the source give for C13U G51U U116C here?
**A.** The value was -3.09.

**Q.** For C13U C49A, which “polymerase ribozyme fitness (log ratio)” value is on record?
**A.** Its value is -0.597.

**Q.** Which “polymerase ribozyme fitness (log ratio)” value does the source give for C13U U32G here?
**A.** Its value is -5.28.

**Q.** With C13U C28G as the variant, how does the “polymerase ribozyme fitness (log ratio)” value read?
**A.** Its value is -1.58.

**Q.** For C13G G57U, which “polymerase ribozyme fitness (log ratio)” value is on record?
**A.** Its value is -1.94.

**Q.** With C13U C97A as the variant, how does the “polymerase ribozyme fitness (log ratio)” value read?
**A.** Its value is -3.93.

**Q.** Which “polymerase ribozyme fitness (log ratio)” value does the source give for C13U C97U here?
**A.** Its value is -1.03.

**Q.** Which “polymerase ribozyme fitness (log ratio)” value does the source give for C13U G63C C76A U78A here?
**A.** Its value is -6.73.

**Q.** Which “polymerase ribozyme fitness (log ratio)” value does the source give for C13U C70U here?
**A.** The value was -0.262.

**Q.** Which “polymerase ribozyme fitness (log ratio)” value does the source give for C13U C82U C85A G117A here?
**A.** Its value is -2.68.

**Q.** Which “polymerase ribozyme fitness (log ratio)” value does the source give for C13U A37C G57U here?
**A.** The value was -0.0732.

**Q.** For C13U G36C A43U U112G G127U G128A, which “polymerase ribozyme fitness (log ratio)” value is on record?
**A.** The value was -5.23.

**Q.** With C13U G63A G77A C89U A90U G113A G122A U125A G127C as the variant, how does the “polymerase ribozyme fitness (log ratio)” value read?
**A.** The value was -5.73.

**Q.** With C13U G63A U96A as the variant, how does the “polymerase ribozyme fitness (log ratio)” value read?
**A.** The value was -1.68.

**Q.** With C13U G93A as the variant, how does the “polymerase ribozyme fitness (log ratio)” value read?
**A.** The value was -0.513.

**Q.** Which “polymerase ribozyme fitness (log ratio)” value does the source give for C13U G93U here?
**A.** Its value is -0.472.

**Q.** For U14A A37C A43U A90U U130G, which “polymerase ribozyme fitness (log ratio)” value is on record?
**A.** The value was -2.85.

**Q.** Which “polymerase ribozyme fitness (log ratio)” value does the source give for C13U G45A C79G here?
**A.** Its value is -1.83.

**Q.** With C13U G36U U133A as the variant, how does the “polymerase ribozyme fitness (log ratio)” value read?
**A.** Its value is -1.43.

**Q.** For C13U C56U U81G A90G, which “polymerase ribozyme fitness (log ratio)” value is on record?
**A.** Its value is -0.257.

**Q.** With C13U G69U C124U G135C as the variant, how does the “polymerase ribozyme fitness (log ratio)” value read?
**A.** The value was 2.21.

**Q.** With C13U C34A C64U A84C G113U as the variant, how does the “polymerase ribozyme fitness (log ratio)” value read?
**A.** The value was -4.89.

**Q.** Which “polymerase ribozyme fitness (log ratio)” value does the source give for C13U A50U G77C A121G C123U C124U G128U U131C here?
**A.** The value was 0.387.

**Q.** Which “polymerase ribozyme fitness (log ratio)” value does the source give for C13U U54A here?
**A.** The value was 1.21.

**Q.** For C13U C62A A118U G122A, which “polymerase ribozyme fitness (log ratio)” value is on record?
**A.** Its value is -2.35.

**Q.** For C13U G42U C104U, which “polymerase ribozyme fitness (log ratio)” value is on record?
**A.** Its value is -0.915.
